Laboratory results taken from patent publication US20210364527A1.

Assays:
[1] = target: peptide having an N-terminal (unmodified) tyrosine residue (rest of sequence not given)
[2] = target: peptide having an N-terminal phenylalanine residue (rest of sequence not given)
[3] = target: peptide having an N-terminal tryptophan residue (rest of sequence not given)
[4] = target: polypeptide with a terminal leucine residue (rest of sequence not given)
[5] = target: fluorescently-labeled peptide containing N-terminal phospho-tyrosine; assay: single-molecule, SH2 variant immobilized in sample wells, labeled peptide in solution; top panel
[6] = target: fluorescently-labeled peptide containing N-terminal phospho-tyrosine; assay: single-molecule, SH2 variant immobilized in sample wells, labeled peptide in solution; bottom panel
[7] = target: peptide containing N-terminal phospho-serine; assay: negative control, single-molecule, SH2 variant immobilized, labeled phospho-serine peptide in solution; top trace
[8] = target: peptide containing N-terminal phospho-serine; assay: negative control, single-molecule, SH2 variant immobilized, labeled phospho-serine peptide in solution; bottom trace
[9] = target: peptide containing N-terminal phospho-serine; assay: negative control, single-molecule, SH2 variant immobilized, labeled phospho-serine peptide in solution; middle trace
[10] = target: fluorescently-labeled peptide containing N-terminal phospho-tyrosine; assay: single-molecule, SH2 variant immobilized in sample wells, labeled peptide in solution; top plot (top trace of FIG. 22A)
[11] = target: fluorescently-labeled peptide containing N-terminal phospho-tyrosine; assay: single-molecule, SH2 variant immobilized in sample wells, labeled peptide in solution; bottom plot (bottom trace of FIG. 22A)
[12] = target: fluorescently-labeled peptide containing N-terminal phospho-tyrosine; assay: single-molecule, SH2 variant immobilized in sample wells, labeled peptide in solution; middle plot (middle trace of FIG. 22A)
[13] = target: IR peptide (N-terminal IR; rest of sequence not given); assay: binder-on-chip, run 94158
[14] = target: IA peptide (N-terminal isoleucine, penultimate alanine; rest of sequence not given); assay: binder-on-chip single-molecule assay
[15] = target: IR peptide (N-terminal IR; rest of sequence not given); assay: binder-on-chip single-molecule assay
[16] = target: T1, LA peptide (N-terminal leucine, penultimate alanine; rest of sequence not given); assay: binder-on-chip single-molecule assay
[17] = target: T2, N-terminal leucine peptide …; assay: peptide-on-chip recognition assay, dye-labelled PS372
T2 sequence (peptide): LAAIAAFAADDDW

[18] = target: T1, LA peptide (N-terminal leucine, …); assay: stopped-flow, complex mixed with excess unlabelled trap peptide
[19] = target: FA peptide (N-terminal phenylalanine, penultimate alanine; rest of sequence not given); assay: as above

B1: Agrobacterium tumifaciens ClpS1 (atClpS1) (protein)
chain: MIAEPICMQGEGDGEDGGTNRGTSVITRVKPKTKRPNLYRVLLLNDDYTPMEFVIHILERFFQKDREAATRIMLHVHQHGVGECGVFTYEVAETKVSQVMDFARQHQHPLQCVMEKK
With B1 as the binder, how does the mean pulse duration (dashed line of the distribution) [1] read?
Its mean pulse duration (dashed line of the distribution) is 0.69 s.

And the mean pulse duration (dashed line of the distribution) [2]?
Its mean pulse duration (dashed line of the distribution) is 0.59 s.

And the mean pulse duration (dashed line of the distribution) [3]?
The mean pulse duration (dashed line of the distribution) was 0.34 s.

And the mean pulse duration (dashed line of the distribution) [4]?
The mean pulse duration (dashed line of the distribution) was 0.31 s.

B2: H. sapiens Fyn SH2 domain triple mutant superbinder (designed binder)
chain: MGAMDSIQAEEWYFGKLGRKDAERQLLSFGNPRGTFLIRESETVKGAYALSIRDWDDMKGDHVKHYLIRKLDNGGYYITTRAQFETLQQLVQHYSERAAGLSSRLVVPSHK
With B2 as the binder, how does the mean pulse duration (dashed line of the distribution) [5] read?
The mean pulse duration (dashed line of the distribution) was 0.26 s.

What about the mean interpulse duration (dashed line of the distribution) [6] of the same binder?
Its mean interpulse duration (dashed line of the distribution) is 0.51 s.

What about the pulse duration, M (median) of one trace [7] of the same binder?
The pulse duration, M (median) of one trace was 0.09 s.

And the pulse duration, μ (mean) of one trace [7]?
The pulse duration, μ (mean) of one trace was 0.09 s.

And the pulse duration, M (median) of one trace [8]?
Its pulse duration, M (median) of one trace is 0.1 s.

And the pulse duration, μ (mean) of one trace [8]?
Its pulse duration, μ (mean) of one trace is 0.16 s.

And the pulse duration, M (median) of one trace [9]?
Its pulse duration, M (median) of one trace is 0.11 s.

And the pulse duration, μ (mean) of one trace [9]?
The pulse duration, μ (mean) of one trace was 0.15 s.

What about the pulse duration, M (median) of one trace [10] of the same binder?
Its pulse duration, M (median) of one trace is 0.15 s.

And the pulse duration, μ (mean) of one trace [10]?
The pulse duration, μ (mean) of one trace was 0.25 s.

And the pulse duration, M (median) of one trace [11]?
The pulse duration, M (median) of one trace was 0.17 s.

What about the pulse duration, μ (mean) of one trace [11] of the same binder?
Its pulse duration, μ (mean) of one trace is 0.26 s.

What about the pulse duration, M (median) of one trace [12] of the same binder?
Its pulse duration, M (median) of one trace is 0.15 s.

And the pulse duration, μ (mean) of one trace [12]?
Its pulse duration, μ (mean) of one trace is 0.23 s.

B3: PS372 (ClpS homolog) (protein)
chain: MAFPARGKTAPKNEVRRQPPYNVILLNDDDHTYRYVIEMLQKIFGFPPEKGFQIAEEVDRTGRVILLTTSKEHAELKQDQVHSYGPDPYLGRPCSGSMTCVIEPAV
For B3, which Median pulse width [13] is on record?
Its Median pulse width is 64 ms.

And the mean pulse width [13]?
Its mean pulse width is 86 ms.

And the pulse duration [14]?
The pulse duration was 70 ms.

And the pulse duration [15]?
Its pulse duration is 83 ms.

What about the mean pulse width [16] of the same binder?
The mean pulse width was 876 ms.

What about the mean pulse width [17] of the same binder?
The mean pulse width was 957 ms.

B4: PS698 (PS557-SNAP TAG fusion 2) (designed binder)
chain: MPTAASATESAIEDTPAPARPEVDGRTKPKRQPRYHVVLWNDDDHTYQYVVVMLQSLFGHPPERGYRLAKEVDTQGRVIVLTTTREHAELKRDQIHAFGYDRLLARSKGSMKASIEAEEHHHHHHHHHHGGGSGGGSGGGSGLNDFFEAQKIEWHEGGGSGGGSGGGSGLNDFFEAQKIEWHEGSAGSAAGSGEFMDKDCEMKRTTLDSPLGKLELSGCEQGLHEIKLLGKGTSAADAVEVPAPAAVLGGPEPLMQATAWLNAYFHQPEAIEEFPVPALHHPVFQQESFTRQVLWKLLKVVKFGEVISYQQLAALAGNPAATAAVKTALSGNPVPILIPCHRVVSSSGAVGGYEGGLAVKEWLLAHEGHRLGKPGLG
For B4, which koff [18] is on record?
Its koff is 0.19 s⁻¹.

B5: Planctomycetia bacterium ClpS homolog (PS557) (protein)
chain: MPTAASATESAIEDTPAPARPEVDGRTKPKRQPRYHVVLWNDDDHTYQYVVVMLQSLFGHPPERGYRLAKEVDTQGRVIVLTTTREHAELKRDQIHAFGYDRLLARSKGSMKASIEAEE
B5 was tested. Which koff [18] did it give?
The koff was 0.22 s⁻¹.

B6: PS706 (atClpS2-V1-EF fusion) (designed binder)
chain: MSDSPVDLKPKPKVKPKLERPKLYKVMLLNDDYTPMSFVTVVLKAVFRMSEDTGRRVMMTAHRFGSAVVVVCERDIAETKAKEATDLGKEAGFPLMFTTEPEEGSAGSAAGSGEFMIKKYTGDFETTTDLNDCRVWSWGVCDIDNVDNITFGLEIDSFFEWCEMQGSTDIYFHDEKFDGEFMLSWLFKNGFKWCKEAKEERTFSTLISNMGQWYALEICWNVKCTTTKTGKTKKEKQRTIIYDSLKKYPFPVKEIAEAFNFPIKKGEIDYTKERPIGYNPTDDEWDYLKNDIQIMAMALKIQFDQGLTRMTRGSDALGDYQDWVKTTYGKSRFKQWFPVLSLGFDKDLRKAYKGGFTWVNKVFQGKEIGEGIVFDVNSLYPSQMYVRPLPYGTPLFYEGEYKENIDYPLYIQNIKVRFRLKERHIPTIQVKQSSLFIQNEYLESSVNKLGVDELIDLTLTNVDLDLFFEHYDILEIHYTYGYMFKASCDMFKGWIDKWIEVKNTTEGARKANAKGMLNSLYGKFGTNPDITGKVPYMGEDGIVRLTLGEEELRDPVYVPLASFVTAWGRYTTITTAQRCFDNIIYCDTDSIHLTGTEVPEAIEHLVDSKKLGYWKHESTFQRAKFIRQKTYVEEIDGELNVKCAGMPDRIKELVTFDNFEVGFSSYGKLLPKRTQGGVVLVDTMFTIKGSAGSAAGSGEFHHHHHHHHHHGGGSGGGSGGGSGLNDFFEAQKIEWHEGGGSGGGSGGGSGLNDFFEAQKIEWHE
For B6, which koff [19] is on record?
The koff was 0.589 s⁻¹.

B7: PS705 (atClpS2-V1-SNAP TAG fusion 2) (designed binder)
chain: MSDSPVDLKPKPKVKPKLERPKLYKVMLLNDDYTPMSFVTVVLKAVFRMSEDTGRRVMMTAHRFGSAVVVVCERDIAETKAKEATDLGKEAGFPLMFTTEPEEHHHHHHHHHHGGGSGGGSGGGSGLNDFFEAQKIEWHEGGGSGGGSGGGSGLNDFFEAQKIEWHEGSAGSAAGSGEFMDKDCEMKRTTLDSPLGKLELSGCEQGLHEIKLLGKGTSAADAVEVPAPAAVLGGPEPLMQATAWLNAYFHQPEAIEEFPVPALHHPVFQQESFTRQVLWKLLKVVKFGEVISYQQLAALAGNPAATAAVKTALSGNPVPILIPCHRVVSSSGAVGGYEGGLAVKEWLLAHEGHRLGKPGLG
Which koff [19] does the source give for B7 here?
The koff was 1.27 s⁻¹.

B8: PS704 (atClpS2-V1-2xSNAP TAG fusion) (designed binder)
chain: MSDSPVDLKPKPKVKPKLERPKLYKVMLLNDDYTPMSFVTVVLKAVFRMSEDTGRRVMMTAHRFGSAVVVVCERDIAETKAKEATDLGKEAGFPLMFTTEPEEGSAGSAAGSGEFMDKDCEMKRTTLDSPLGKLELSGCEQGLHEIKLLGKGTSAADAVEVPAPAAVLGGPEPLMQATAWLNAYFHQPEAIEEFPVPALHHPVFQQESFTRQVLWKLLKVVKFGEVISYQQLAALAGNPAATAAVKTALSGNPVPILIPCHRVVSSSGAVGGYEGGLAVKEWLLAHEGHRLGKPGLGMDKDCEMKRTTLDSPLGKLELSGCEQGLHEIKLLGKGTSAADAVEVPAPAAVLGGPEPLMQATAWLNAYFHQPEAIEEFPVPALHHPVFQQESFTRQVLWKLLKVVKFGEVISYQQLAALAGNPAATAAVKTALSGNPVPILIPCHRVVSSSGAVGGYEGGLAVKEWLLAHEGHRLGKPGLGGSAGSAAGSGEFHHHHHHHHHHGGGSGGGSGGGSGLNDFFEAQKIEWHEGGGSGGGSGGGSGLNDFFEAQKIEWHE
Which koff [19] does the source give for B8 here?
Its koff is 0.677 s⁻¹.

B9: PS703 (atClpS2-V1-SNAP TAG fusion) (designed binder)
chain: MSDSPVDLKPKPKVKPKLERPKLYKVMLLNDDYTPMSFVTVVLKAVFRMSEDTGRRVMMTAHRFGSAVVVVCERDIAETKAKEATDLGKEAGFPLMFTTEPEEGSAGSAAGSGEFMDKDCEMKRTTLDSPLGKLELSGCEQGLHEIKLLGKGTSAADAVEVPAPAAVLGGPEPLMQATAWLNAYFHQPEAIEEFPVPALHHPVFQQESFTRQVLWKLLKVVKFGEVISYQQLAALAGNPAATAAVKTALSGNPVPILIPCHRVVSSSGAVGGYEGGLAVKEWLLAHEGHRLGKPGLGGSAGSAAGSGEFHHHHHHHHHHGGGSGGGSGGGSGLNDFFEAQKIEWHEGGGSGGGSGGGSGLNDFFEAQKIEWHE
With B9 as the binder, how does the koff [19] read?
The koff was 0.767 s⁻¹.

B10: PS696 (PS557-SNAP TAG fusion) (designed binder)
chain: MPTAASATESAIEDTPAPARPEVDGRTKPKRQPRYHVVLWNDDDHTYQYVVVMLQSLFGHPPERGYRLAKEVDTQGRVIVLTTTREHAELKRDQIHAFGYDRLLARSKGSMKASIEAEEGSAGSAAGSGEFMDKDCEMKRTTLDSPLGKLELSGCEQGLHEIKLLGKGTSAADAVEVPAPAAVLGGPEPLMQATAWLNAYFHQPEAIEEFPVPALHHPVFQQESFTRQVLWKLLKVVKFGEVISYQQLAALAGNPAATAAVKTALSGNPVPILIPCHRVVSSSGAVGGYEGGLAVKEWLLAHEGHRLGKPGLGGSAGSAAGSGEFHHHHHHHHHHGGGSGGGSGGGSGLNDFFEAQKIEWHEGGGSGGGSGGGSGLNDFFEAQKIEWHE
How did the koff [18] turn out when B10 was run?
Its koff is 0.15 s⁻¹.
